Article PMC11111093

Target: HA-ADAP (UniProt O15117)
Test: co-IP; HEK293T co-transfected with HA-ADAP and Flag-RIG-I or Flag-tagged RIG-I truncations, lysates 48 h after transfection; anti-HA immunoprecipitation, anti-Flag blot

UniProt O15117, sequence (O15117 whole entry, the tested form may be a part): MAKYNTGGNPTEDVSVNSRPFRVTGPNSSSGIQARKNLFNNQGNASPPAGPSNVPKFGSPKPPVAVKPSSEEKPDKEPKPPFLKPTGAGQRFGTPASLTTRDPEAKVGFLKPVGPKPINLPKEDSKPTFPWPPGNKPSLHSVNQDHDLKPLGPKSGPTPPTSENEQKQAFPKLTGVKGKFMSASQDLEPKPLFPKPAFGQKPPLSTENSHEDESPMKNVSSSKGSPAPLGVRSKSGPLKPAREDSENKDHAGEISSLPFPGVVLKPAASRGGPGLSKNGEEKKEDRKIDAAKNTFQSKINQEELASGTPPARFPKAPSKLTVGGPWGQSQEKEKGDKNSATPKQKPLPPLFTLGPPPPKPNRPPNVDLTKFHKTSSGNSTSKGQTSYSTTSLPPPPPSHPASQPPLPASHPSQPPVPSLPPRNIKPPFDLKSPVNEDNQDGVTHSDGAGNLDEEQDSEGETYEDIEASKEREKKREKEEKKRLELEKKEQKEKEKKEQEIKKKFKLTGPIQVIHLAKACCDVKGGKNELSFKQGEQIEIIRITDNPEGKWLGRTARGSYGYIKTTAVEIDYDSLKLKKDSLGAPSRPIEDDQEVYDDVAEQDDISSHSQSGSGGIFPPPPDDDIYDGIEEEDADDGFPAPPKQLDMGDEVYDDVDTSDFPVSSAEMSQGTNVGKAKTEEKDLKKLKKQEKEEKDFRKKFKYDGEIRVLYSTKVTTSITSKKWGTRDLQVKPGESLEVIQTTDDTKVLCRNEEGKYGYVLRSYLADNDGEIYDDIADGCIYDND

percent decrease in binding compared to wild-type RIG-I: 60%
Substance: Flag-RIG-I helicase domain (aa 239-734) (from UniProt O95786 239-734) (domain or fragment)
